{"source": "paper PMC1891289", "about": "“Improvement of activity and stability of chloroperoxidase by chemical modification” (BMC Biotechnology, 2007)", "key": {"purified protein [1]": {"substrate": "Oc1ccccc1", "experiment": "purified protein", "assay_type": "biochemical, Leptoxyphium fumago", "details": "50 mM sodium citrate pH 5.0, 0.2 mM H2O2, 2.4 mM 4-aminoantipyrine, 30 °C in methods (room temperature in text), apparent, native enzyme"}, "purified protein [2]": {"substrate": "CSc1ccccc1", "experiment": "purified protein", "assay_type": "biochemical, Leptoxyphium fumago", "details": "50 mM sodium citrate pH 5.0, 300 μM H2O2, room temperature, apparent, native enzyme"}}, "data": [{"protein": "Chloroperoxidase (CPO) (Leptoxyphium fumago) (protein, not chemically modified) QEPGSGIGYPYDNNTLPYVAPGPTDSRAPCPALNALANHGYIPHDGRAISRETLQNAFLNHMGIANSVIELALTNAFVVCEYVTGSDCGDSLVNLTLLAEPHAFEHDHSFSRKDYKQGVANSNDFIDNRNFDAETFQTSLDVVAGKTHFDYADMNEIRLQRESLSNELDFPGWFTESKPIQNVESGFIFALVSDFNLPDNDENPLVRIDWWKYWFTNESFPYHLGWHPPSPAREIEFVTSASSAVLAASVTSTPSSLPSGAIGPGAEAVPLSFASTMTPFLLATNAPYYAQDPTLGPND", "values": [{"measurement": "Km", "setting": "purified protein [1]", "result": "350 ± 10", "unit": "µM"}, {"measurement": "Km", "setting": "purified protein [2]", "result": "1640 ± 90", "unit": "µM"}]}]}
